According to US9969998B2, “Compositions of adenosine deaminase-2 (ADA2), variants thereof and methods of using same” (Halozyme, Inc., priority 2014, dated 2018):
Positions count from the first letter of the chain named. Names and notes keep the numbering of the source. Values joined by “and” are separate entries in the source; they are usually repeats but may differ in a detail not shown here. Equal values may be shown once. “Also recorded” adds a separate entry of the source.

Tests used:
[1] = test system: NK/T cells; test: rHuADA2 rescue of adenosine-mediated inhibition of NK/T cell proliferation; format: cell-based, human
Procedure: A mixture of NK and T cells (NK/T) were prepared from healthy donor's peripheral blood mononuclear cells (PBMC). Briefly, 10×10^7 HumanPBMCs were cultured for 6-7 days in Stem cell growth medium (SCGM; Order No. 20802-0500, CellGenix, Freiburg, Germany) with 5% human serum from donors with blood type AB (human AB serum; Cat. No. 35-060-C1, Mediatech, Mannassas, Va.) in the presence of 20 ng/mL anti-CD3 eBioscience, San Diego, Calif.; Cat. No. 16-0039) and 500 IU/mL recombinant human interleukin 2 (rhIL-2; Cat. No. 200-02, PeproTech, Rocky Hill, N.J.). The cells were then cultured for an additional 2-3 weeks in SCGM in the presence of 500 IU/mL rhIL-2. NK/T cells cultured for 2-4 weeks were used in experiments.
NK/T cells (10,000 cells/well) were plated in 96 well white plates with clear bottoms in a total volume of 180 μL. The cells were treated with 20 μL rHuADA2 at concentrations resulting from 3-fold dilution series, to give a final rHuADA2 concentration of 100 nM, 30 nM, 10 nM, 3 nM, 1 nM, 0.3 nM, 0.1 nM, and 0.03 nm, and then each well also was treated with 20 μL of adenosine at 1 mM. After treatment, the NK/T cells were cultured, processed and luminescence measured as described above. The mean cell survival (%) was determined by comparison of the measured luminescence to control cells not treated with adenosine or rHuADA2.
Experiments also were performed to assess the effect of rHuADA2 to reverse adenosine-mediated inhibition of NK/T cell proliferation at various concentrations of adenosine. The experiments were conducted in a similar manner as described above, with final adenosine concentration of 1 mM, 100, 50, or 25 μM and final rHuADA2 concentration of 100 nM, 30 nM, 10 nM, 3 nM, 1 nM, 0.3 nM, 0.1 nM, and 0.03 nM.

[2] = adenosine deaminase activity; listed as wildtype ADA2; cited from earlier work
[3] = test system: adenosine in tumor extracellular matrix; test: Adenosine in MH194+PSC4 tumor extracellular matrix (microdialysis, LC/MS); format: in vivo, mice; conditions: for Adenosine concentration in ECM, Mean: n = 8; for Adenosine concentration in ECM, individual tumors: single animal values; for adenosine concentration in tumor ECM: 0.03 mg/kg
Procedure: To assess the effects of PEGADA2 on adenosine in tumor extracellular matrix, mice bearing peritibial MH194+PSC4 tumors received vehicle, the polypeptide whose sequence is set forth in SEQ ID NO:20, which contains the amino acid replacement K374D (Zavialov numbering; K371D mature numbering), at 0.03 mg/kg, or the polypeptide whose sequence is set forth in SEQ ID NO: 273, which contains the amino acid replacements R222Q/S265N (Zavialov numbering; R219Q/S262 mature numbering), at 0.03 mg/kg, 24 or 48 hours prior to microdialysis. Each of the polypeptides were PEGylated as described above in Examples 8 and 22). The mice were anesthetized using isofluorane, and a heating pad was used to maintain body temperature. A small incision was made on the tumor. A microdialysis probe with 55,000 Da molecular weight cut-off (CMA, Stockholm, Sweden) was inserted into the tumor, via a guided cannula. The length of the microdialysis probe used in this study was 10 mm. Once the probe was in position, the cannula was withdrawn leaving the probe completely embedded in the tumor tissue. Dulbecco's phosphate buffered saline (DPBS; Thermo Fisher Scientific) with ADA inhibitors (Pentostatin and 5-iodotubercindin) was perfused through the probe at a flow rate of 1 μl/min for 30 minutes. Then the samples were collected at a flow rate of 0.5 μl/min for 60 minutes. Microdialysis perfusates were analyzed by Liquid chromatography-mass spectrometry (LC/MS) at MicroConstants (9050 Camino Santa Fe, San Diego, Calif. 92121).

[4] = test system: KLN205 murine lung cancer tumor; test: Tumor growth inhibition of combination therapy with anti-PD-1, KLN205 syngeneic tumor model; format: in vivo, DBA/2 mice; conditions: study day 14, PEG-K374D 0.3 mg/kg IV biweekly, α-PD-1 2 mg/kg IP biweekly
Procedure: KLN205 syngeneic tumor models were produced by injecting thirty-two (32) DBA/2 mice with 5×10^5 KLN205 murine lung cancer tumor cells (ATCC CRL-1453), in 0.1 mL injection volume per animal, subcutaneously. Tumor bearing mice were staged into treatment groups when the average tumor size reached approximately 100 mm^3.
For treatment, animals were randomized into 4 groups (n=8/group): 1) saline vehicle control, 2) PEG-K374D, 3) α-PD-1 antibody (Clone RMP1-14, Cat. No. BE0146; BioXCell, West Lebanon, N.H.), or 4) PEG-K374D+α-PD-1. PEG-K374D was dosed intravenously biweekly at 0.3 mg/kg, and α-PD-1 was dosed intraperitoneally biweekly at 2 mg/kg). The sequence of dosing in the combination group was PEG-K374D immediately followed by α-PD-1.
where “Tn” is the average tumor volume for the treatment group at day “n” after the final dose of PEG-K374D and α-PD-1 or control; “T0” is the average tumor volume in that treatment group at day 0, before treatment; “Cn” is the average tumor volume for the corresponding control group at day “n”; and “C0” is the average tumor volume in the control group at day 0, before treatment.

B1: ADA2: wild-type human adenosine deaminase 2, mature form SEQ ID NO:5, homodimer (protein, listed as Homo sapiens)
chain: IDETRAHLLLKEKMMRLGGRLVLNTKEELANERLMTLKIAEMKEAMRTLIFPPSMHFFQAKHLIERSQVFNILRMMPKGAALHLHDIGIVTMDWLVRNVTYRPHCHICFTPRGIMQFRFAHPTPRPSEKCSKWILLEDYRKRVQNVTEFDDSLLRNFTLVTQHPEVIYTNQNVVWSKFETIFFTISGLIHYAPVFRDYVFRSMQEFYEDNVLYMEIRARLLPVYELSGEHHDEEWSVKTYQEVAQKFVETHPEFIGIKIIYSDHRSKDVAVIAESIRMAMGLRIKFPTVVAGFDLVGHEDTGHSLHDYKEALMIPAKDGVKLPYFFHAGETDWQGTSIDRNILDALMLNTTRIGHGFALSKHPAVRTYSWKKDIPIEVCPISNQVLKLVSDLRNHPVATLMATGHPMVISSDDPAMFGAKGLSYDFYEVFMGIGGMKADLRTLKQLAMNSIKYSTLLESEKNTFMEIWKKRWDKFIADVATK
modifications: ADA2 mature protein
[1]; ADA2 0.03 nM, 25 μM Adenosine
  MS % (mean survival): 81.7%
[1]; ADA2 0.03 nM, 50 μM Adenosine
  MS % (mean survival): 71.2%
[1]; ADA2 0.03 nM, 100 μM Adenosine
  MS % (mean survival): 45.9%
[1]; ADA2 0.03 nM, 1 mM Adenosine
  MS % (mean survival): 15.6%
[1]; ADA2 0.1 nM, 25 μM Adenosine
  MS % (mean survival): 89.6%
[1]; ADA2 0.1 nM, 50 μM Adenosine
  MS % (mean survival): 76.6%
[1]; ADA2 0.1 nM, 100 μM Adenosine
  MS % (mean survival): 43.8%
[1]; ADA2 0.1 nM, 1 mM Adenosine
  MS % (mean survival): 16.3%
[1]; ADA2 0.3 nM, 25 μM Adenosine
  MS % (mean survival): 90.5%
[1]; ADA2 0.3 nM, 50 μM Adenosine
  MS % (mean survival): 64.8%
[1]; ADA2 0.3 nM, 100 μM Adenosine
  MS % (mean survival): 57.8%
[1]; ADA2 0.3 nM, 1 mM Adenosine
  MS % (mean survival): 18.3%
[1]; ADA2 1 nM, 25 μM Adenosine
  MS % (mean survival): 99.3%
[1]; ADA2 1 nM, 50 μM Adenosine
  MS % (mean survival): 80.2%
[1]; ADA2 1 nM, 100 μM Adenosine
  MS % (mean survival): 71.7%
[1]; ADA2 1 nM, 1 mM Adenosine
  MS % (mean survival): 22.6%
[1]; ADA2 3 nM, 25 μM Adenosine
  MS % (mean survival): 107.4%
[1]; ADA2 3 nM, 50 μM Adenosine
  MS % (mean survival): 94%
[1]; ADA2 3 nM, 100 μM Adenosine
  MS % (mean survival): 91.6%
[1]; ADA2 3 nM, 1 mM Adenosine
  MS % (mean survival): 41.4%
[1]; ADA2 10 nM, 25 μM Adenosine
  MS % (mean survival): 121.2%
[1]; ADA2 10 nM, 50 μM Adenosine
  MS % (mean survival): 105.9%
[1]; ADA2 10 nM, 100 μM Adenosine
  MS % (mean survival): 108.3%
[1]; ADA2 10 nM, 1 mM Adenosine
  MS % (mean survival): 67.1%
[1]; ADA2 30 nM, 25 μM Adenosine
  MS % (mean survival): 117.2%
[1]; ADA2 30 nM, 50 μM Adenosine
  MS % (mean survival): 114.7%
[1]; ADA2 30 nM, 100 μM Adenosine
  MS % (mean survival): 114.4%
[1]; ADA2 30 nM, 1 mM Adenosine
  MS % (mean survival): 79.1%
[1]; ADA2 100 nM, 25 μM Adenosine
  MS % (mean survival): 120.6%
[1]; ADA2 100 nM, 50 μM Adenosine
  MS % (mean survival): 116.9%
[1]; ADA2 100 nM, 100 μM Adenosine
  MS % (mean survival): 109%
[1]; ADA2 100 nM, 1 mM Adenosine
  MS % (mean survival): 96.3%
[2]
  pH optimum: ~6.5

B2: K374D: ADA2 variant SEQ ID NO:20 (protein)
chain: B1 chain with K371D
modifications: human ADA2 K371D, mature numbering
[3]; 24 hours after 0.03 mg/kg
  Adenosine concentration in ECM, Mean: 19.54 µM
  Adenosine concentration in ECM, individual tumors: 49.02 µM and 12.72 µM and 29.64 µM and 13.58 µM and 12.54 µM and 7.48 µM and 2.04 µM and 29.30 µM
[3]; 24 hours post treatment
  adenosine concentration in tumor ECM: 19.5 µM
[3]; 48 hours after 0.03 mg/kg
  Adenosine concentration in ECM, Mean: 11.06 µM
  Adenosine concentration in ECM, individual tumors: 23.13 µM and 0.07 µM and 6.47 µM and 2.77 µM and 20.92 µM and 1.64 µM and 27.54 µM and 5.95 µM
[3]; 48 hours post treatment
  adenosine concentration in tumor ECM: 11 µM

B3: PEG-K374D: rHuADA2-K374D (SEQ ID NO:20) PEGylated on surface exposed lysines with linear PEG-20K (conjugate)
chain: B1 chain with K371D
modifications: linear PEG-20K on surface lysines; human ADA2 K371D, mature numbering
[4]
  Average Tumor Volume: 264.56 mm^3
  Tumor Growth Inhibition: inhibited tumor growth; also recorded: greater tumor growth inhibition than either α-PD-1 treatment alone or the PEG-K374D+α-PD-1 combination therapy
[4]; vs vehicle
  Tumor Growth Inhibition: 78%
